Numbering of substitutions follows the chain as printed. Blank lines part the entries; values can stand above or below the binder they belong to.
Legend:
cynomolgus PD-1 = biological target: T1, cynomolgus PD-1 (cynomolgus); experiment: BLI, antibody on AHC tip, soluble PD-1
T1 construct: also called cyno PD-1

human PD-1 = biological target: T2, human PD-1 (human, UniProt Q15116 25-167, limits assumed); experiment: BLI, antibody on AHC tip, soluble PD-1
T2 construct: also called huPD-1

human MAdCAM [1] = biological target: T3, human MAdCAM (human, UniProt Q13477 19-317, limits assumed); experiment: BLI, antibody on AHC tip, soluble MAdCAM
T3 construct: also called huMAdCAM
T3 sequence (looked up): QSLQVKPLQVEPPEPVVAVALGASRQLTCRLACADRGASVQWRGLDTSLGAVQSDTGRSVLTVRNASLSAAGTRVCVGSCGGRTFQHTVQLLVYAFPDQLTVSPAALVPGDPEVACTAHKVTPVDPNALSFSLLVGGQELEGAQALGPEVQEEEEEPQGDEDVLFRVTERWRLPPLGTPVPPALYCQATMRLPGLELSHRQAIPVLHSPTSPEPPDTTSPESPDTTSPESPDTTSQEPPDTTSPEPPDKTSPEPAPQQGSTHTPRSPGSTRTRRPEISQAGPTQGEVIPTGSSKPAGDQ
Experimental: (§1) Anti-human IgG Fc (AHC) biosensors were equilibrated in assay buffer for 20 minutes. Test article was diluted to 10 μg/mL in assay buffer (lx PBS, 1% BSA, 0.05% Tween20). A seven-point serial dilution of human and cynomolgus PD-1 or human, cynomolgus and mouse MAdCAM was prepared in assay buffer, starting at 1000 nM down to 15.625 nM. For PD-1 binding, test article was loaded on tips for 180 s followed by a 180 s association phase with PD-1 and 240 s dissociation phase in assay buffer. For MAdCAM binding, test article was loaded on tips for 180 s followed by a 120 s association phase with MAdCAM and 180 s dissociation phase in assay buffer. […] Accordingly, PMAB65 binds human, cyno, and mouse PD-1 and MAdCAM.

mouse MAdCAM = biological target: T4, mouse MAdCAM (mouse, UniProt Q61826 22-364); experiment: BLI, antibody on AHC tip, soluble MAdCAM
T4 sequence (looked up): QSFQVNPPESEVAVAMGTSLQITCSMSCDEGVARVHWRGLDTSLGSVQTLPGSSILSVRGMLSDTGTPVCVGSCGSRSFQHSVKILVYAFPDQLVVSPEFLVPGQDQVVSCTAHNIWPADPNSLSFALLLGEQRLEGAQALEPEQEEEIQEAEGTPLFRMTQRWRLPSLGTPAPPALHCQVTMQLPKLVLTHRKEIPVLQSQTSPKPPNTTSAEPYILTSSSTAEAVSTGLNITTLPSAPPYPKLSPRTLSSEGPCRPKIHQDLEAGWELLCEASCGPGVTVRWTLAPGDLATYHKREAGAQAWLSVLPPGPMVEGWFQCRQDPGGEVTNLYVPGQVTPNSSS
Experimental: as §1

cynomolgus MAdCAM = biological target: T5, cynomolgus MAdCAM (cynomolgus); experiment: BLI, antibody on AHC tip, soluble MAdCAM
T5 chain: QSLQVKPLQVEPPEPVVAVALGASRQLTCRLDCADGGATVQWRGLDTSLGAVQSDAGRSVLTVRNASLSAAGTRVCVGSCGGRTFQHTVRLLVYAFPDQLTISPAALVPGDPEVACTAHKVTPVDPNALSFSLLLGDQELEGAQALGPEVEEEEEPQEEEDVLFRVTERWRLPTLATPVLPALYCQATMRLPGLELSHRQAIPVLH
Experimental: as §1

mouse PD-1 = biological target: T6, mouse PD-1 (mouse, UniProt Q02242 25-167, limits assumed); experiment: BLI, antibody on AHC tip
T6 sequence (looked up): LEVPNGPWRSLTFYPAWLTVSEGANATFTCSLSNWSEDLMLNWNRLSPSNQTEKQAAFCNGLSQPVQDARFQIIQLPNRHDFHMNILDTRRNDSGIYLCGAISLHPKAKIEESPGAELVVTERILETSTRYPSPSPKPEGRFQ

[2] = biological target: PD-1 on PD-1 reporter Jurkat cells; experiment: cell-based or functional assay
human MAdCAM [3] = biological target: T3, human MAdCAM; experiment: BLI Octet
Experimental: (§2) Anti-human Fc biosensors were equilibrated in assay buffer (1% BSA in 1×PBS with 0.05% Tween-20) for 10 minutes before the experiment was set-up. Test articles were diluted to 5 μg/mL in assay buffer and 200 μL pipetted to 96 well plate. Human MAdCAM was titrated down, two-fold dilutions (starting at 600 nM as the highest concentration, 7-point dilution). Experiment was run using data acquisition software version 10.0 for OCTET96 RED. Test articles were captured using anti-human Fc biosensors for 180 s. Biosensors loaded with test articles were then equilibrated in assay buffer for 120 s. Association was performed in wells with huMAdCAM for 180 seconds. Dissociation was performed in wells with assay buffer for 180 s. Kinetic parameters (kon and kdis) and dissociation constant (KD) were calculated from a 1:1 global fit model using the data analysis software of the Octet96 RED software version 10.

human MAdCAM [4] = biological target: T3, human MAdCAM; experiment: BLI Octet, against PRNT1
Experimental: as §2

T2 sequence (Q15116 25-167 limits assumed): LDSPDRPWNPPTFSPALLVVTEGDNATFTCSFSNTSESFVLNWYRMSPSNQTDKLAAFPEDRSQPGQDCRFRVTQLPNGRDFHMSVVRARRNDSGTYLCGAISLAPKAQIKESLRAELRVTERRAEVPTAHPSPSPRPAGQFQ

B2: MIAB169 (antibody, human IgG1, kappa)
heavy: EVQLLESGGGLVQPGGSLRLSCAASGFTFSDFWMHWVRQAPGKGLEWISYISGDSGYTNYADSVKGRFTISRDNSKNTLYLQMNSLRAEDTAVYYCARDRPYYYIMDVWGKGTTVTVSSASTKGPSVFPLAPSSKSTSGGTAALGCLVKDYFPEPVTVSWNSGALTSGVHTFPAVLQSSGLYSLSSVVTVPSSSLGTQTYICNVNHKPSNTKVDKKVEPKSCDKTHTCPPCPAPEAAGAPSVFLFPPKPKDTLMISRTPEVTCVVVDVSHEDPEVKFNWYVDGVEVHNAKTKPREEQYNSTYRVVSVLTVLHQDWLNGKEYKCKVSNKALPAPIEKTISKAKGQPREPQVYTLPPSREEMTKNQVSLTCLVKGFYPSDIAVEWESNGQPENNYKTTPPVLDSDGSFFLYSKLTVDKSRWQQGNVFSCSVMHEALHNHYTQKSLSLSPGGGGGSAPTSSSTKKTQLQLEHLLLDLQMILNGINNYKNPKLTRMLTFKFYMPKKATELKHLQCLEEELKPLEEALNLAPSKNFHLRPRDLISDINVIVLELKGSETTFMCEYADETATIVEFINRWITFSQSIISTLT
light: DIQMTQSPSSLSASVGDRVTITCRASQSVSRSLAWYQQKPGKAPKLLIYAASSLQSGVPSRFSGSGSGTDFTLTISSLQPEDFATYYCQQYKSYPVTFGQGTKVEIKRTVAAPSVFIFPPSDEQLKSGTASVVCLLNNFYPREAKVQWKVDNALQSGNSQESVTEQDSKDSTYSLSSTLTLSKADYEKHKVYACEVTHQGLSSPVTKSFNRGEC
notes: also called MIAB169-CHO; MIAB169-HEK
fold lower affinity than parent PRNT1 (human MAdCAM [3]): 10 fold

B4: MIAB182 (antibody, human IgG1, kappa)
heavy: B2 heavy with D31S, F32Y, I48V, Y50A, D54S, S55G, Y57S, N59Y, I105Y
light: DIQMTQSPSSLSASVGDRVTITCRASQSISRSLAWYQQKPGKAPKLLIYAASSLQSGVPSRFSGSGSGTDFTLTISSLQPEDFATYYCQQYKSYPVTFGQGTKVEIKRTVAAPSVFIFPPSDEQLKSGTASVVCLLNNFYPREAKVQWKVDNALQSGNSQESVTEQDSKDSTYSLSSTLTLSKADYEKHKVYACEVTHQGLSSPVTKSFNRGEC
notes: also called MIAB182-001
fold reduction of MAdCAM affinity (human MAdCAM [4]): 10 fold

Second part, the binder after the results:

Kd (cynomolgus PD-1): 30.3 nM | Kd (human PD-1): 32.6 nM | Kd (human MAdCAM [1]): 75.5 nM | Kd (mouse MAdCAM): 269 nM | Kd (cynomolgus MAdCAM): 24.3 nM | binding result (mouse PD-1): no binding | PD-1 reporter Jurkat cells on test-article-loaded MAdCAM-expressing CHO cells; EC50 [2]: 0.78 nM | SHP-2 recruitment, Ig-tethered test article, PD-1 reporter Jurkat cells; EC50 [2]: 3.04 nM
B1: PMAB65 (bispecific antibody, human IgG1, kappa)
heavy: EVQLLESGGGLVQPGGSLRLSCAASGFTFSSYDMSWVRQAPGKGLEWVSGITISGGSTYYADSVKGRFTISRDNSKNTLYLQMNSLRAEDTAVYYCARGRGGSGWLDYWGQGTTVTVSSASTKGPSVFPLAPSSKSTSGGTAALGCLVKDYFPEPVTVSWNSGALTSGVHTFPAVLQSSGLYSLSSVVTVPSSSLGTQTYICNVNHKPSNTKVDKKVEPKSCDKTHTCPPCPAPEAAGAPSVFLFPPKPKDTLMISRTPEVTCVVVDVSHEDPEVKFNWYVDGVEVHNAKTKPREEQYNSTYRVVSVLTVLHQDWLNGKEYKCKVSNKALPAPIEKTISKAKGQPREPQVYTLPPSREEMTKNQVSLTCLVKGFYPSDIAVEWESNGQPENNYKTTPPVLDSDGSFFLYSKLTVDKSRWQQGNVFSCSVMHEALHNHYTQKSLSLSPGGGGGSGGGGSGGGGSEVQLLESGGGLVQPGGSLRLSCAASGFTFSSYWMHWVRQAPGKGLEWVSYISGSGGYTNYADSVKGRFTISRDNSKNTLYLQMNSLRAEDTAVYYCARDRPYYYDMDVWGKGTTVTVSSGGGGSGGGGSGGGGSGGGGSDIQMTQSPSSLSASVGDRVTITCRASQSISSSLAWYQQKPGKAPKLLIYAASSLQSGVPSRFSGSGSGTDFTLTISSLQPEDFATYYCQQYKSYPVTFGQGTKVEIK
light: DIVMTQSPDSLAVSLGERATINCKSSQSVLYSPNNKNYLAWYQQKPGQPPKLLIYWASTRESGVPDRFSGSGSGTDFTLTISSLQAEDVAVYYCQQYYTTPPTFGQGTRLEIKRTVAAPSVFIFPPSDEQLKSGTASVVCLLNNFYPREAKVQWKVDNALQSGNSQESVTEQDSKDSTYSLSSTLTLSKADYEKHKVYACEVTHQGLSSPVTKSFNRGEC

fold reduction of MAdCAM affinity (human MAdCAM [4]): 20 fold
B3: MIAB183 (antibody, human IgG1, kappa)
heavy: B2 heavy with D31S, F32Y, I48V, Y50A, D54S, S55G, Y57S, N59Y, I105Y
light: B2 light with R31S
notes: also called MIAB183-001

fold reduction of MAdCAM affinity (human MAdCAM [4]): 40 fold
B5: MIAB184 (antibody, human IgG1, kappa)
heavy: B2 heavy with D31S, F32Y, I48V, Y50A, D54S, S55G, Y57S, N59Y, I105Y
light: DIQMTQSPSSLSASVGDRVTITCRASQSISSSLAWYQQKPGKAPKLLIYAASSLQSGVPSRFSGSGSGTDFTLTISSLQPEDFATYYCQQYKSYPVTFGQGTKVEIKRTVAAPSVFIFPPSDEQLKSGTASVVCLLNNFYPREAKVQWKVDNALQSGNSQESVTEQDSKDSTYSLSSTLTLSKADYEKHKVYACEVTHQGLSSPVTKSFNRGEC
notes: also called MIAB184-001

— patent US20240301064A1 (published 2024)
